Data reported in article PMC4705688.

How the values were obtained:
[1] = target: His-Cmr (Mycobacterium tuberculosis H37Rv) (UniProt P9WMH5); experiment: EMSA
[2] = target: His-Cmr HTH+ del217-244 (Mycobacterium tuberculosis H37Rv) (UniProt P9WMH5); experiment: EMSA
[3] = target: His-Cmr HTH- del195-244 (Mycobacterium tuberculosis H37Rv) (UniProt P9WMH5); experiment: EMSA
[4] = target: His-Cmr (Mycobacterium tuberculosis H37Rv) (UniProt P9WMH5); experiment: DNase I footprinting

His-Cmr HTH+ del217-244 (Mycobacterium tuberculosis H37Rv), sequence (P9WMH5 1-216): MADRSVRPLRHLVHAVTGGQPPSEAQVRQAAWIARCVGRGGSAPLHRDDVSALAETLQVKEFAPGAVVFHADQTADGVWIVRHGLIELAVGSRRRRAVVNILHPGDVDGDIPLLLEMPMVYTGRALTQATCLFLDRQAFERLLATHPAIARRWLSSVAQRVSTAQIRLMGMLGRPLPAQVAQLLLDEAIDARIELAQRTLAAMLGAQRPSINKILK
His-Cmr (Mycobacterium tuberculosis H37Rv), sequence (P9WMH5 whole entry): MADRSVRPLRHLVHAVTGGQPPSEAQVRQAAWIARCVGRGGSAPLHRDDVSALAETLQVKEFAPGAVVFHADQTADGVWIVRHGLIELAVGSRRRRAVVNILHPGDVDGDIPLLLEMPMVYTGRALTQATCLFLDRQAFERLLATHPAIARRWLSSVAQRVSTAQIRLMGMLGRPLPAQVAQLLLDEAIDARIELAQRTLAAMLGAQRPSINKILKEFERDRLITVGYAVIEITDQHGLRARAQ
His-Cmr HTH- del195-244 (Mycobacterium tuberculosis H37Rv), sequence (P9WMH5 1-194): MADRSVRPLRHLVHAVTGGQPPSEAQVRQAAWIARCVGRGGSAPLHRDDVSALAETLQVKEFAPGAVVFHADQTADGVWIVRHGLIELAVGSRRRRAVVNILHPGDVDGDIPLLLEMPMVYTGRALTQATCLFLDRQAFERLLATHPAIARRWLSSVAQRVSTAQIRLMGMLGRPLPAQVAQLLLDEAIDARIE

Sequence: ATCTCAACTATGTGGCCTTGTCCTTAGTCACCGCCGACGGACACACCCTGCTGCACCACCCGTATACCCAGAGCGAGGTGGACATCAAGAAGAACGTGTTCACGATGATGATGCGGCTACCGTGGTTGTATCGCGTTCCCGTACATACGATTCACAAATTTGGCCACATGCTCAGCGGCATGGCGATCCGGATCGTC (double strand) [2G5 full]
- binding [1]: binds
- binding [2]: binds
- binding [3]: no binding

Sequence: CGGACTGCTGCTGCTCGCCGTTGTCTCCGGTGATTGGGTTGCCCATACCTCCTGGGGCGCAGCGTGGTTCAGCTTGTCACCGGTGACACTGTGTTGGCTTCTCATCAGCTATGGCTTCGCAGCTTCGGTGCTGCCGGTGTGGCTGCTGCTCGCGCCACGCGACTACCTGTCAACGTTCATGAAGG (double strand) [1C1 full]
- binding [1]: binds
- binding [2]: binds
- binding [3]: no binding
- binding [4]: binds

Sequence: TAAAGTCACCGCCGGGGCCGATGTTCGCAGTCGCGGGCTCGGTGCCATCCATATCGTTGCGCAGCGCGATGCCGTGCCAATGCACCGACGTCGGATCACCCAGACGGTTGGTCACCGAGACGACAATCTCATCCCCGACGGTGGCCCGGATCAGTGGTCCGGGGATGGTGTTGCCGTAGGTCAGCGTGCTGACGATCGGCCCACCCAGGTCGATCCTCGCCGGCTGGGGGGTCAGCGTGGCGGTAACCGTTCGCCCACTGTGCGGCCGGGCCGCCTCGGCCGCGTCGATTGCAGCGGT (double strand) [Rv0846c]
- binding [1]: binds

Sequence: TCTATGGCGGCCAGGGACGCACATTGTGGGCTTCGGGGTAATTGTCTTGGGTTGGCTGCCCCGCGCTGCACAGGGTTACTGGCCCAGGAGGCGGACGTCATCGTGTTAACACCCGTCGGGATAACCTGGGAGCGGCGCAGCCAAGGAAGGAACCAACCGTCCGGTGTCAGACCTAGCCAGAACCGACGTCGTGCTGATC (double strand) [2C5 full]
- binding [1]: binds
- binding [2]: binds
- binding [3]: no binding
